# According to patent publication US20190225662A1:
# Columns and labels:
# [1] = biological target: GABAB Receptor from rat whole-brain synaptosome extracts (rat); test: affinity pull-down with sAPPα-Fc bait on rat synaptosome extracts, LCLC-MS/MS, three repeats
# [2] = biological target: GABABR1a on mouse hippocampal neurons (cultures and slices) (mouse) (UniProt Q9WV18); test: cell-based or functional assay
# Chain of GABABR1a on mouse hippocampal neurons (cultures and slices) (mouse) (Q9WV18 20-960): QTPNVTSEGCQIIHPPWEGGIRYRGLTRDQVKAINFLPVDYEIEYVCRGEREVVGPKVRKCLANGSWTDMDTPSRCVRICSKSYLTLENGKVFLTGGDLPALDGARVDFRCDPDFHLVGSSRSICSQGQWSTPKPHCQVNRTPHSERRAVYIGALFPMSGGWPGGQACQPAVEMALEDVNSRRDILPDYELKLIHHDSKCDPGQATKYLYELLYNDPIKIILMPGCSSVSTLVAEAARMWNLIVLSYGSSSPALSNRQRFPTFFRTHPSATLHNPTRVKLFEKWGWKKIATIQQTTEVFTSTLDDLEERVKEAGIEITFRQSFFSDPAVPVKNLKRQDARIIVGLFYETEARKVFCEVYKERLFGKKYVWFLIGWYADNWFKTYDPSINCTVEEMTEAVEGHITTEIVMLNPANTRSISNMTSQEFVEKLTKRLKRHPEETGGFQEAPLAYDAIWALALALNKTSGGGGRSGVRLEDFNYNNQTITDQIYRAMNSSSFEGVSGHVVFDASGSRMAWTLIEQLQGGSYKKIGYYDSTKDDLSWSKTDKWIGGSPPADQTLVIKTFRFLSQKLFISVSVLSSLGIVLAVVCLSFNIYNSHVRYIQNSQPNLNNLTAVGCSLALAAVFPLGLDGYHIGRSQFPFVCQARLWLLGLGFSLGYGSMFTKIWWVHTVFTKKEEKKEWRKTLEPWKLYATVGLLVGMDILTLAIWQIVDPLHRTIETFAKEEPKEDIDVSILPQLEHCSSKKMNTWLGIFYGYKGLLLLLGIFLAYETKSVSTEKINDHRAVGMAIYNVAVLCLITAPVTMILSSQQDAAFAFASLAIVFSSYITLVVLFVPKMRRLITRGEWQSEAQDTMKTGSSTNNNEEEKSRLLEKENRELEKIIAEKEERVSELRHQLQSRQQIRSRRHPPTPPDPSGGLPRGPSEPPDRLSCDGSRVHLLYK
# Chain of GABAB Receptor from rat whole-brain synaptosome extracts (rat) (Q9Z0U4 20-960, chain 1 of 2): as the sequence (Q9WV18 20-960) above, with V5A, D108E, I124V, I702V, A850T, I902L counted along it
# Chain of GABAB Receptor from rat whole-brain synaptosome extracts (rat) (O88871 41-940, chain 2 of 2, further chain): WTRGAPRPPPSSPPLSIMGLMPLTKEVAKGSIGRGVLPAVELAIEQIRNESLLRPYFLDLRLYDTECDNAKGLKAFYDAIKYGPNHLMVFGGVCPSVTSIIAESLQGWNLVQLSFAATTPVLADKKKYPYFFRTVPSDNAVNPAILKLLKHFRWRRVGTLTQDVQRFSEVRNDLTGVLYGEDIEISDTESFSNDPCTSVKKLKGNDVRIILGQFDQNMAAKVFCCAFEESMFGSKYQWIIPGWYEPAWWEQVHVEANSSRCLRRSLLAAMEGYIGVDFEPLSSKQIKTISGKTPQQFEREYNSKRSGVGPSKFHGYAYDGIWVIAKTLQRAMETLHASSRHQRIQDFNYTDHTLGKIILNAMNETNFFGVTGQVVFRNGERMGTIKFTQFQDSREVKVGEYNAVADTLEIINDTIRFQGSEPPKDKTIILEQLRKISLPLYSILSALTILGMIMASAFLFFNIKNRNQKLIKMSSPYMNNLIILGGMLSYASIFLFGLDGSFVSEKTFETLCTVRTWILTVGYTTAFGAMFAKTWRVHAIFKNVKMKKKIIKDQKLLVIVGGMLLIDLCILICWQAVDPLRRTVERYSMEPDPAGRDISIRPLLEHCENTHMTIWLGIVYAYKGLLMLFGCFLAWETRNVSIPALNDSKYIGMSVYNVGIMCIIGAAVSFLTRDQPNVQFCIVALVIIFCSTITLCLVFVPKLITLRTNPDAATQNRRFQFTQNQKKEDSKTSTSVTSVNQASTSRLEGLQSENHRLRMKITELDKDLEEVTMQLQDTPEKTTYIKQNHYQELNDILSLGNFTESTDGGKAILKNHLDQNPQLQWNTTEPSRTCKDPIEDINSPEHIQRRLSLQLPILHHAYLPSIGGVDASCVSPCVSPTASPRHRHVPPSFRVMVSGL
Substance,summed peptide count [1],summed spectra count [1],"reduction in mIPSC frequency, 250 nM [2] [%]"
sAPPα-Fc (soluble amyloid precursor protein α fused to human Fc) (from UniProt P12023 18-612) (Fc fusion),35,22,–
sAPLP1 (without Fc) (from UniProt Q03157 38-583) (ligand),–,–,17
